According to patent US12630600B2 (MEDIMMUNE LIMITED, priority 2022, dated 2026):
Starred links: 1 amine or outer side, 2 acyl side, 3 side chain; linkers in the order of their positions; H or OH if unused. Non-standard residues stand in square brackets, D forms with d. Groups on a side chain read outwards from the residue. No end group written: not given here. *: point of attachment. C18 diacid = O=C(O)CCCCCCCCCCCCCCCCC(=O)*; γGlu = O=C(O)[C@H](CCC(=O)[*:2])N[*:1]; αMeF = C[C@](N)(Cc1ccccc1)C(=O)O; AEEA = NCCOCCOCC(=O)O; Aib = CC(C)(N)C(=O)O

Key:
human GLP-1 receptor = human GLP-1 receptor (human, UniProt P43220); test: cell-based or functional assay
human glucagon receptor = human glucagon receptor (human, UniProt P47871); test: cell-based or functional assay

Binder | cAMP production EC50 (human GLP-1 receptor) [nM] | cAMP production EC50 (human glucagon receptor) [nM]
H[Aib]QGTFTSDVSK[αMeF]LDKK([AEEA-AEEA-γGlu-C18 diacid])RAQDFVRWLLR[Aib]K-OH (N-terminus assumed; SMILES CC(C)C[C@H](NC(=O)[C@H](Cc1c[nH]c2ccccc12)NC(=O)[C@H](CCCNC(=N)N)NC(=O)[C@@H](NC(=O)[C@H](Cc1ccccc1)NC(=O)[C@H](CC(=O)O)NC(=O)[C@H](CCC(N)=O)NC(=O)[C@H](C)NC(=O)[C@H](CCCNC(=N)N)NC(=O)[C@H](CCCCNC(=O)COCCOCCNC(=O)COCCOCCNC(=O)CC[C@H](NC(=O)CCCCCCCCCCCCCCCCC(=O)O)C(=O)O)NC(=O)[C@H](CCCCN)NC(=O)[C@H](CC(=O)O)NC(=O)[C@H](CC(C)C)NC(=O)[C@](C)(Cc1ccccc1)NC(=O)[C@H](CCCCN)NC(=O)[C@H](CO)NC(=O)[C@@H](NC(=O)[C@H](CC(=O)O)NC(=O)[C@H](CO)NC(=O)[C@@H](NC(=O)[C@H](Cc1ccccc1)NC(=O)[C@@H](NC(=O)CNC(=O)[C@H](CCC(N)=O)NC(=O)C(C)(C)NC(=O)[C@@H](N)Cc1c[nH]cn1)[C@@H](C)O)[C@@H](C)O)C(C)C)C(C)C)C(=O)N[C@@H](CC(C)C)C(=O)N[C@@H](CCCNC(=N)N)C(=O)NC(C)(C)C(=O)N[C@@H](CCCCN)C(=O)O) [Peptide 426] | 0.0073 | 0.0612
H[Aib]QGTFTSDVSK[αMeF]LDKK([AEEA-AEEA-γGlu-C18 diacid])RAQDFVRWLL[Aib]TK-OH (N-terminus assumed; SMILES CC(C)C[C@H](NC(=O)[C@H](Cc1c[nH]c2ccccc12)NC(=O)[C@H](CCCNC(=N)N)NC(=O)[C@@H](NC(=O)[C@H](Cc1ccccc1)NC(=O)[C@H](CC(=O)O)NC(=O)[C@H](CCC(N)=O)NC(=O)[C@H](C)NC(=O)[C@H](CCCNC(=N)N)NC(=O)[C@H](CCCCNC(=O)COCCOCCNC(=O)COCCOCCNC(=O)CC[C@H](NC(=O)CCCCCCCCCCCCCCCCC(=O)O)C(=O)O)NC(=O)[C@H](CCCCN)NC(=O)[C@H](CC(=O)O)NC(=O)[C@H](CC(C)C)NC(=O)[C@](C)(Cc1ccccc1)NC(=O)[C@H](CCCCN)NC(=O)[C@H](CO)NC(=O)[C@@H](NC(=O)[C@H](CC(=O)O)NC(=O)[C@H](CO)NC(=O)[C@@H](NC(=O)[C@H](Cc1ccccc1)NC(=O)[C@@H](NC(=O)CNC(=O)[C@H](CCC(N)=O)NC(=O)C(C)(C)NC(=O)[C@@H](N)Cc1c[nH]cn1)[C@@H](C)O)[C@@H](C)O)C(C)C)C(C)C)C(=O)N[C@@H](CC(C)C)C(=O)NC(C)(C)C(=O)N[C@H](C(=O)N[C@@H](CCCCN)C(=O)O)[C@@H](C)O) [Peptide 424] | 0.0155 | 0.129
H[Aib]QGTFTSDVSK[αMeF]LDKK([AEEA-AEEA-γGlu-C18 diacid])RAQDFVRWLKA[Aib]G-OH (N-terminus assumed; SMILES CC(C)C[C@H](NC(=O)[C@H](Cc1c[nH]c2ccccc12)NC(=O)[C@H](CCCNC(=N)N)NC(=O)[C@@H](NC(=O)[C@H](Cc1ccccc1)NC(=O)[C@H](CC(=O)O)NC(=O)[C@H](CCC(N)=O)NC(=O)[C@H](C)NC(=O)[C@H](CCCNC(=N)N)NC(=O)[C@H](CCCCNC(=O)COCCOCCNC(=O)COCCOCCNC(=O)CC[C@H](NC(=O)CCCCCCCCCCCCCCCCC(=O)O)C(=O)O)NC(=O)[C@H](CCCCN)NC(=O)[C@H](CC(=O)O)NC(=O)[C@H](CC(C)C)NC(=O)[C@](C)(Cc1ccccc1)NC(=O)[C@H](CCCCN)NC(=O)[C@H](CO)NC(=O)[C@@H](NC(=O)[C@H](CC(=O)O)NC(=O)[C@H](CO)NC(=O)[C@@H](NC(=O)[C@H](Cc1ccccc1)NC(=O)[C@@H](NC(=O)CNC(=O)[C@H](CCC(N)=O)NC(=O)C(C)(C)NC(=O)[C@@H](N)Cc1c[nH]cn1)[C@@H](C)O)[C@@H](C)O)C(C)C)C(C)C)C(=O)N[C@@H](CCCCN)C(=O)N[C@@H](C)C(=O)NC(C)(C)C(=O)NCC(=O)O) [Peptide 425] | 0.0115 | 0.827

Results, then the binder that gave them:

cAMP production EC50 (human GLP-1 receptor) [nM] | cAMP production EC50 (human glucagon receptor) [nM] | Binder
0.0331 | 0.0105 | H[Aib]QGTFTSDVSK[αMeF]LDTK([AEEA-AEEA-γGlu-γGlu-C18 diacid])RARDFVQWLLE[Aib]G-NH2 (N-terminus assumed; SMILES CC(C)C[C@H](NC(=O)[C@H](Cc1c[nH]c2ccccc12)NC(=O)[C@H](CCC(N)=O)NC(=O)[C@@H](NC(=O)[C@H](Cc1ccccc1)NC(=O)[C@H](CC(=O)O)NC(=O)[C@H](CCCNC(=N)N)NC(=O)[C@H](C)NC(=O)[C@H](CCCNC(=N)N)NC(=O)[C@H](CCCCNC(=O)COCCOCCNC(=O)COCCOCCNC(=O)CC[C@H](NC(=O)CC[C@H](NC(=O)CCCCCCCCCCCCCCCCC(=O)O)C(=O)O)C(=O)O)NC(=O)[C@@H](NC(=O)[C@H](CC(=O)O)NC(=O)[C@H](CC(C)C)NC(=O)[C@](C)(Cc1ccccc1)NC(=O)[C@H](CCCCN)NC(=O)[C@H](CO)NC(=O)[C@@H](NC(=O)[C@H](CC(=O)O)NC(=O)[C@H](CO)NC(=O)[C@@H](NC(=O)[C@H](Cc1ccccc1)NC(=O)[C@@H](NC(=O)CNC(=O)[C@H](CCC(N)=O)NC(=O)C(C)(C)NC(=O)[C@@H](N)Cc1c[nH]cn1)[C@@H](C)O)[C@@H](C)O)C(C)C)[C@@H](C)O)C(C)C)C(=O)N[C@@H](CC(C)C)C(=O)N[C@@H](CCC(=O)O)C(=O)NC(C)(C)C(=O)NCC(N)=O) [Peptide 428]
0.0276 | 0.123 | H[Aib]QGTFTSDVSK[αMeF]LDRK([AEEA-AEEA-γGlu-C18 diacid])RAQDFVRWLL[Aib]TE-NH2 (N-terminus assumed; SMILES CC(C)C[C@H](NC(=O)[C@H](Cc1c[nH]c2ccccc12)NC(=O)[C@H](CCCNC(=N)N)NC(=O)[C@@H](NC(=O)[C@H](Cc1ccccc1)NC(=O)[C@H](CC(=O)O)NC(=O)[C@H](CCC(N)=O)NC(=O)[C@H](C)NC(=O)[C@H](CCCNC(=N)N)NC(=O)[C@H](CCCCNC(=O)COCCOCCNC(=O)COCCOCCNC(=O)CC[C@H](NC(=O)CCCCCCCCCCCCCCCCC(=O)O)C(=O)O)NC(=O)[C@H](CCCNC(=N)N)NC(=O)[C@H](CC(=O)O)NC(=O)[C@H](CC(C)C)NC(=O)[C@](C)(Cc1ccccc1)NC(=O)[C@H](CCCCN)NC(=O)[C@H](CO)NC(=O)[C@@H](NC(=O)[C@H](CC(=O)O)NC(=O)[C@H](CO)NC(=O)[C@@H](NC(=O)[C@H](Cc1ccccc1)NC(=O)[C@@H](NC(=O)CNC(=O)[C@H](CCC(N)=O)NC(=O)C(C)(C)NC(=O)[C@@H](N)Cc1c[nH]cn1)[C@@H](C)O)[C@@H](C)O)C(C)C)C(C)C)C(=O)N[C@@H](CC(C)C)C(=O)NC(C)(C)C(=O)N[C@H](C(=O)N[C@@H](CCC(=O)O)C(N)=O)[C@@H](C)O) [Peptide 422]
0.0261 | 2.22 | H[Aib]QGTFTSDVSK[αMeF]LDKK([AEEA-AEEA-γGlu-C18 diacid])RAQDFVRWLK[Aib]TE-OH (N-terminus assumed; SMILES CC(C)C[C@H](NC(=O)[C@H](Cc1c[nH]c2ccccc12)NC(=O)[C@H](CCCNC(=N)N)NC(=O)[C@@H](NC(=O)[C@H](Cc1ccccc1)NC(=O)[C@H](CC(=O)O)NC(=O)[C@H](CCC(N)=O)NC(=O)[C@H](C)NC(=O)[C@H](CCCNC(=N)N)NC(=O)[C@H](CCCCNC(=O)COCCOCCNC(=O)COCCOCCNC(=O)CC[C@H](NC(=O)CCCCCCCCCCCCCCCCC(=O)O)C(=O)O)NC(=O)[C@H](CCCCN)NC(=O)[C@H](CC(=O)O)NC(=O)[C@H](CC(C)C)NC(=O)[C@](C)(Cc1ccccc1)NC(=O)[C@H](CCCCN)NC(=O)[C@H](CO)NC(=O)[C@@H](NC(=O)[C@H](CC(=O)O)NC(=O)[C@H](CO)NC(=O)[C@@H](NC(=O)[C@H](Cc1ccccc1)NC(=O)[C@@H](NC(=O)CNC(=O)[C@H](CCC(N)=O)NC(=O)C(C)(C)NC(=O)[C@@H](N)Cc1c[nH]cn1)[C@@H](C)O)[C@@H](C)O)C(C)C)C(C)C)C(=O)N[C@@H](CCCCN)C(=O)NC(C)(C)C(=O)N[C@H](C(=O)N[C@@H](CCC(=O)O)C(=O)O)[C@@H](C)O) [Peptide 423]
0.0124 | 0.0472 | H[Aib]QGTFTSDVSK[αMeF]LDTK([AEEA-AEEA-γGlu-C18 diacid])RARDFVQWLLE[Aib]G-NH2 (N-terminus assumed; SMILES CC(C)C[C@H](NC(=O)[C@H](Cc1c[nH]c2ccccc12)NC(=O)[C@H](CCC(N)=O)NC(=O)[C@@H](NC(=O)[C@H](Cc1ccccc1)NC(=O)[C@H](CC(=O)O)NC(=O)[C@H](CCCNC(=N)N)NC(=O)[C@H](C)NC(=O)[C@H](CCCNC(=N)N)NC(=O)[C@H](CCCCNC(=O)COCCOCCNC(=O)COCCOCCNC(=O)CC[C@H](NC(=O)CCCCCCCCCCCCCCCCC(=O)O)C(=O)O)NC(=O)[C@@H](NC(=O)[C@H](CC(=O)O)NC(=O)[C@H](CC(C)C)NC(=O)[C@](C)(Cc1ccccc1)NC(=O)[C@H](CCCCN)NC(=O)[C@H](CO)NC(=O)[C@@H](NC(=O)[C@H](CC(=O)O)NC(=O)[C@H](CO)NC(=O)[C@@H](NC(=O)[C@H](Cc1ccccc1)NC(=O)[C@@H](NC(=O)CNC(=O)[C@H](CCC(N)=O)NC(=O)C(C)(C)NC(=O)[C@@H](N)Cc1c[nH]cn1)[C@@H](C)O)[C@@H](C)O)C(C)C)[C@@H](C)O)C(C)C)C(=O)N[C@@H](CC(C)C)C(=O)N[C@@H](CCC(=O)O)C(=O)NC(C)(C)C(=O)NCC(N)=O) [Peptide 427]
